Key:
Assay in all cases: cell-based or functional assay
[1] = molecular target: T1, recombinant human CCL20 (R&D Systems, #360-MP-025/CF) (human, UniProt P78556 27-96)
[2] = molecular target: T1, recombinant human CCL20 (R&D Systems, …); remark: listed apart in the source
[3] = molecular target: T1, recombinant human CCL20 (R&D Systems, …); remark: listed apart in the source

T1 sequence (P78556 other isoform, or with tags, fused parts or gaps limits assumed): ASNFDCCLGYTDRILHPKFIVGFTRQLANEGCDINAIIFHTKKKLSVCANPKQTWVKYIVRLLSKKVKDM

Binder | IC95 of chemotaxis inhibition [1] [nM] | IC90 of chemotaxis inhibition [2] [nM] | IC50 of chemotaxis inhibition [3] [nM] | IC50 of chemotaxis inhibition (block of heavy chains 36HKK1 to 36HKK3) [3] [nM] | IC50 of chemotaxis inhibition (block of heavy chains 36HKK3, 36HC2, 36HC3) [3] [nM]
humanized anti-human CCL20 antibody 36LK3/42HKK1 (antibody, human IgG1, kappa, V domains shown) VH: QVQLVQSGAEVKKPGASVKVSCKASGYTFTSYWMHWVRQAPGQGLEWMGLIDPSDKYTNYNQKFKGRVTMTRDTSTSTVYMELSSLRSEDTAVYYCARGNYGVDYGMDYWGQGTLVTVSS VL: DIQMTQSPSSLSASVGDRVTITCGASENIYGALNWYQRKPGKAPKLLIYGATNLADGVPSRFSGSGSGRDYTLTISSLQPEDFATYYCQNVLITPYTFGQGTKLEIKR | 9.02 | 4.86 | 1.36 |  | 
36LC3/36HC3 (antibody, human IgG1, kappa, V domains shown) VH: QVQLVQSGAEVKKPGASVKVSCKASGYTFTNYWMHWVKQAPGQGLEWIGVIDPSDSYTTYNQKFKGKATMTRDTSTSTVYMELSSLRSEDTAVYYCTRGNYGVDYAMDYWGQGTSVTVSS VL: DIQMTQSPSSLSASVGDRVTITCRASENIYGALNWYQQKPGKAPKLLIYGATNLADGVPSRFSGSGSGRQYSLTISSLQPEDFATYYCQNVLITPYTFGGGTKLEIKR |  | 6.34 | 1.33 |  | 
humanized anti-human CCL20 antibody 36LC3/36HKK3 (antibody, human IgG1, kappa, V domains shown) VH: QVQLVQSGAEVKKPGASVKVSCKASGYTFTNYWMHWVRQAPGQGLEWMGVIDPSDSYTTYNQKFKGKATLTVDTSTSTAYMELSSLRSEDTAVYYCTRGNYGVDYAMDYWGQGTLVTVSS VL: DIQMTQSPSSLSASVGDRVTITCRASENIYGALNWYQQKPGKAPKLLIYGATNLADGVPSRFSGSGSGRQYSLTISSLQPEDFATYYCQNVLITPYTFGGGTKLEIKR | 9.75 | 4.33 | 1.26 |  | 
humanized anti-human CCL20 antibody 36LK3/36HC3 (antibody, human IgG1, kappa, V domains shown) VH: QVQLVQSGAEVKKPGASVKVSCKASGYTFTNYWMHWVKQAPGQGLEWIGVIDPSDSYTTYNQKFKGKATMTRDTSTSTVYMELSSLRSEDTAVYYCTRGNYGVDYAMDYWGQGTSVTVSS VL: DIQMTQSPSSLSASVGDRVTITCGASENIYGALNWYQRKPGKAPKLLIYGATNLADGVPSRFSGSGSGRDYTLTISSLQPEDFATYYCQNVLITPYTFGQGTKLEIKR | 8.38 | 4.6 | 1.13 |  | 
humanized anti-human CCL20 antibody 36LK3/36HKK3 (antibody, human IgG1, kappa, V domains shown) VH: QVQLVQSGAEVKKPGASVKVSCKASGYTFTNYWMHWVRQAPGQGLEWMGVIDPSDSYTTYNQKFKGKATLTVDTSTSTAYMELSSLRSEDTAVYYCTRGNYGVDYAMDYWGQGTLVTVSS VL: DIQMTQSPSSLSASVGDRVTITCGASENIYGALNWYQRKPGKAPKLLIYGATNLADGVPSRFSGSGSGRDYTLTISSLQPEDFATYYCQNVLITPYTFGQGTKLEIKR |  |  |  | 1.31 | 1.21

Now from value to binder:

IC95 of chemotaxis inhibition [1] [nM] | IC90 of chemotaxis inhibition [2] [nM] | IC50 of chemotaxis inhibition [3] [nM] | IC50 of chemotaxis inhibition (block of heavy chains 36HKK1 to 36HKK3) [3] [nM] | IC50 of chemotaxis inhibition (block of heavy chains 36HKK3, 36HC2, 36HC3) [3] [nM] | Binder
10.8 | 5.65 | 1.47 |  |  | humanized anti-human CCL20 antibody 36LK3/42HKK3 (antibody, human IgG1, kappa, V domains shown) VH: QVQLVQSGAEVKKPGASVKVSCKASGYTFTSYWMHWVRQAPGQGLEWMGLIDPSDKYTNYNQKFKGKATLTVDTSTSTAYMELSSLRSEDTAVYYCTRGNYGVDYGMDYWGQGTLVTVSS VL: DIQMTQSPSSLSASVGDRVTITCGASENIYGALNWYQRKPGKAPKLLIYGATNLADGVPSRFSGSGSGRDYTLTISSLQPEDFATYYCQNVLITPYTFGQGTKLEIKR
15.3 | 6.54 | 1.66 |  |  | humanized anti-human CCL20 antibody 36LK3/42HKK2 (antibody, human IgG1, kappa, V domains shown) VH: QVQLVQSGAEVKKPGASVKVSCKASGYTFTSYWMHWVRQAPGQGLEWMGLIDPSDKYTNYNQKFKGRVTLTVDTSTSTVYMELSSLRSEDTAVYYCTRGNYGVDYGMDYWGQGTLVTVSS VL: DIQMTQSPSSLSASVGDRVTITCGASENIYGALNWYQRKPGKAPKLLIYGATNLADGVPSRFSGSGSGRDYTLTISSLQPEDFATYYCQNVLITPYTFGQGTKLEIKR
